Assay results from publication PMC4183468.

Molecular target: VE-cadherin (Human CD-144, cadherin-5) (human) (UniProt P33151)
Assay: ELISA; 0.01 µM VE-cadherin or control BSA coated on Linbro plate wells in HBSC overnight at 4°C, blocked with 1% BSA in DMEM; MBP fusions added for 1 hr; detected with anti-MBP antibody, OD655; VE-cadherin signal minus BSA and plastic binding

UniProt P33151, sequence (P33151 48-599): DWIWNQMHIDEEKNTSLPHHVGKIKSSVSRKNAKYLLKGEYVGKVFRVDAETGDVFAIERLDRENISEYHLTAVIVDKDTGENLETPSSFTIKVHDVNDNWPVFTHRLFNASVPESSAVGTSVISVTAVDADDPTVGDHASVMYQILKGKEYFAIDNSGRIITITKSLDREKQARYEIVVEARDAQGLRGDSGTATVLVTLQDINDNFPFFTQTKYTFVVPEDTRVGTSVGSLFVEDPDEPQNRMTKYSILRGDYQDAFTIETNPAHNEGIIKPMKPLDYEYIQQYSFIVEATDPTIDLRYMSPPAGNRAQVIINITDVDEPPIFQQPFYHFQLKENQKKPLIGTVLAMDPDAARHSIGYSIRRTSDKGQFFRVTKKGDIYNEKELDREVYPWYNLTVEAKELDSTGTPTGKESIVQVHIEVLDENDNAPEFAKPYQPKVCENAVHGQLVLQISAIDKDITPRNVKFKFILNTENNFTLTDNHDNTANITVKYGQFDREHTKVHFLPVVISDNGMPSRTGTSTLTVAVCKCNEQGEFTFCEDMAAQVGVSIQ

“MBP fusion of L. interrogans candidate adhesin LIC11574 (natural protein)” showed a Kd of 7.6 nM.

In the case of “MBP fusion of L. interrogans candidate adhesin LIC13411 (natural protein)”, the Kd is reported as 0.4 nM.
